This is an account of results in FireProtDB (doi:10.1021/bi00123a006).

B1: Ribonuclease, P00648 (parent)
chain: MMKMEGIALKKRLSWISVCLLVLVSAAGMLFSTAAKTETSSHKAHTEAQVINTFDGVADYLQTYHKLPDNYITKSEAQALGWVASKGNLADVAPGKSIGGDIFSNREGKLPGKSGRTWREADINYTSGFRNSDRILYSSDWLIYKTTDHYQTFTKIR

The variants in the series derive from B1. The settings on record: Bacillus amyloliquefaciens, 25 °C, Urea, NMR, NaCl 1 M, structure 1BNI, whole UniProt chain shown.

On to W141L, for which the unfolding free energy is, setting by setting: (pH 5.9, MES 30 mM) 7.67 kcal/mol; (pH 8.9, Tris 30 mM) 7.41 kcal/mol. Besides, the “ddG of mutation (higher = less stable)” value (pH 8.9, Tris 30 mM) was found to be 0.64 kcal/mol.

Consider D101N, for which, for the setting “pH 4.4, Sodium acetate 30 mM”, the “ddG of mutation (higher = less stable)” value worked out at 2.65 kcal/mol and the unfolding free energy is 5.48 kcal/mol. Further, for the setting “pH 8.9, Tris 30 mM”, the “ddG of mutation (higher = less stable)” value is 2.32 kcal/mol and the unfolding free energy is 5.73 kcal/mol.

For T53H, the “ddG of mutation (higher = less stable)” value (pH 4.4, Sodium acetate 30 mM) came to 2.65 kcal/mol and the “ddG of mutation (higher = less stable)” value (pH 8.9, Tris 30 mM) turned out to be 1.56 kcal/mol. Moreover, the unfolding free energy was 5.48 kcal/mol (pH 4.4, Sodium acetate 30 mM) and 6.49 kcal/mol (pH 8.9, Tris 30 mM).

H65G W141L: where the note is “pH 5.9, MES 30 mM”, the unfolding free energy amounted to 8.11 kcal/mol. For the same variant, for the setting “pH 8.9, Tris 30 mM”, the “ddG of mutation (higher = less stable)” value was -0.33 kcal/mol and the unfolding free energy was determined as 8.38 kcal/mol.

As to G81H, under “pH 4.4, Sodium acetate 30 mM”, the “ddG of mutation (higher = less stable)” value was 2.6 kcal/mol and the unfolding free energy was 5.53 kcal/mol. Besides, where the note is “pH 8.9, Tris 30 mM”, the “ddG of mutation (higher = less stable)” value came out at 3.15 kcal/mol and the unfolding free energy was found to be 4.9 kcal/mol.

With T73H D101N, for the setting “pH 4.4, Sodium acetate 30 mM”, the “ddG of mutation (higher = less stable)” value is 5.74 kcal/mol and the unfolding free energy was found to be 2.39 kcal/mol. For the setting “pH 8.9, Tris 30 mM”, the “ddG of mutation (higher = less stable)” value is 4.27 kcal/mol and the unfolding free energy is 3.78 kcal/mol.
